Source: PMC4081106 (Nucleic Acids Research, 2014)

Biological target: the molecule itself
Assay: SEC + SEC-MALS

B1: TtcA protein from Escherichia coli, N-terminal hexahistidine-tagged (6his-TtcA) (enzyme, E. coli, UniProt P76055 1-311, looked up)
chain: MQENQQITKKEQYNLNKLQKRLRRNVGEAIADFNMIEEGDRIMVCLSGGKDSYTMLEILRNLQQSAPINFSLVAVNLDQKQPGFPEHVLPEYLEKLGVEYKIVEENTYGIVKEKIPEGKTTCSLCSRLRRGILYRTATELGATKIALGHHRDDILQTLFLNMFYGGKMKGMPPKLMSDDGKHIVIRPLAYCREKDIQRFADAKAFPIIPCNLCGSQPNLQRQVIADMLRDWDKRYPGRIETMFSAMQNVVPSHLCDTNLFDFKGITHGSEVVNGGDLAFDREEIPLQPACWQPEEDENQLDELRLNVVEVK
stoichiometry N: 2
